From patent US20220251546 come the findings set out here.

The target of the data set is T1, IFIT5 (rhIFIT5) (Homo sapiens) (UniProt Q13325).
T1 sequence: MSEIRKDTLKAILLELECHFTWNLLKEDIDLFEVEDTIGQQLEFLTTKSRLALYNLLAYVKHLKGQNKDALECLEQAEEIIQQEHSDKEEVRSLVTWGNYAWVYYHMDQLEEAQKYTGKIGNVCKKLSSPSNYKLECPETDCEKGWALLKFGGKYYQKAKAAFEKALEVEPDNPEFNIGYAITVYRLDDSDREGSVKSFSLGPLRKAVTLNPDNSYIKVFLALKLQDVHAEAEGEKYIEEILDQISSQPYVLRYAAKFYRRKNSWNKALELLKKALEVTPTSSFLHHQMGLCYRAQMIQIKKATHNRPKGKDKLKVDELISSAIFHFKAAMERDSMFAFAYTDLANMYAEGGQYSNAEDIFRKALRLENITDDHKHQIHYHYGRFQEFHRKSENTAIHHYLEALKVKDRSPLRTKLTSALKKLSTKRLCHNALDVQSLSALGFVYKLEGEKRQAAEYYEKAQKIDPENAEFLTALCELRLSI
Briefly: pulldown. The conditions noted are these: 5'-triphosphate; approx. 10-fold enrichment vs 16S rRNA, over 20-fold vs 23S rRNA by RT-qPCR. (In general: Real-time PCR tracks product formation cycle by cycle.)

For the substance Listeria Lmo2210 mRNA and LhrC sRNA, the binding signal was 10 fold.
